Measurements from patent US20060165684A1 (published 2006).

Target: T1, peptide 6 (TIRC7 derived peptide)
T1 construct: also called Peptid6; Vol 6
T1 peptide: DLPDASVNGWSSDE
Assay: solution equilibrium titration with peptide, free antibody by ELISA (method of Friquet et al 1985), Klotz plot

Row | Binder | Kd [nM]
1 | chimeric Neliximab (antibody, V domains shown, Murine VH and VL joined to human gamma 1 (pConGamma1f vector) and human kappa (pConKappa vector) constant regions, made in NSO or CHO cells; also called chimeric antibody of clone 17-1; chimerized #17) VH: EVQLQQSGPELVKPGASVKMSCKASGYTFTTYVMHWVKQKPGQGLEWIGYINPYNDGTNYNEKFKGKATLTSDKSSSTAYMELSTLTSEDSAVYYCAEFITKTVGGSNWYLDVWGAGTTVTVSS VL: QIVLTQSPAIMSASPGEKVTMTCSASSSISYIHWFQQKPGTSPKRWIYDTSKLPSGVPARFSGSGSGTSYSLTISSMEAEDAATYYCHQRSSYTWTFGGGTKLEIKR | 1
2 | murine Metiliximab (antibody, V domains shown, also called #9; Clone 9) VH: EVQLQQSGPELVKPGASVKMSCKASGYTFTSYVIHWVKQKPGQGLEWIGYINPYNYDTKYNEKFKGEATLTSDKSSNTAYMELSSLTSEDSAVYYCAGFFTRAVGGSYWYLDVWGAGTTVTVSS VL: QIVLTQSPAIMSASPGEKVTMTCSASSSISYIHWFQQKPGTSPKRWIYDTSKLVSGVPARFSGSGSGTSYSLTISNMEAADAATYYCHQRSASTWTFGGGTKLEIKR | 0.5
3 | murine Neliximab (antibody, V domains shown, also called #17; Clone 17) VH: EVQLQQSGPELVKPGASVKMSCKASGYTFTTYVMHWVKQKPGQGLEWIGYINPYNDGTNYNEKFKGKATLTSDKSSSTAYMELSTLTSEDSAVYYCAEFITKTVGGSNWYLDVWGAGTTVTVSS VL: QIVLTQSPAIMSASPGEKVTMTCSASSSISYIHWFQQKPGTSPKRWIYDTSKLPSGVPARFSGSGSGTSYSLTISSMEAEDAATYYCHQRSSYTWTFGGGTKLEIKR | 1
